Measurements taken from patent US20190263932A1 (Eli Lilly, published 2019).

B1: mAb D (antibody, human IgG1, kappa)
heavy: EVQLVESGGGLVKPGGSLRLSCAASGFTFSGVSINWVRQAPGKGLEWVSSETTSSGTIYYADSVKGRFTISRDNAKNSLYLQMNSLRAEDTAVYYCARSYYYGMDVWGQGTTVTVSSASTKGPSVFPLAPSSKSTSGGTAALGCLVKDYFPEPVTVSWNSGALTSGVHTFPAVLQSSGLYSLSSVVTVPSSSLGTQTYICNVNHKPSNTKVDKRVEPKSCDKTHTCPPCPAPEAEGAPSVFLFPPKPKDTLMISRTPEVTCVVVDVSHEDPEVKFNWYVDGVEVHNAKTKPREEQYNSTYRVVSVLTVLHQDWLNGKEYKCKVSNKALPSSIEKTISKAKGQPREPQVYTLPPSREEMTKNQVSLTCLVKGFYPSDIAVEWESNGQPENNYKTTPPVLDSDGSFFLYSKLTVDKSRWQQGNVFSCSVMHEALHNHYTQKSLSLSPGK
light: DIVMTQTPLSSPVTLGQPASISCRSSQSLVHRAGNTYLSWLQQRPGQPPRLLIYKISNRFSGVPDRFSGSGAGTDFTLKISRVEAEDVGVYYCMQARQFPLTFGGGTKVEIKRTVAAPSVFIFPPSDEQLKSGTASVVCLLNNFYPREAKVQWKVDNALQSGNSQESVTEQDSKDSTYSLSSTLTLSKADYEKHKVYACEVTHQGLSSPVTKSFNRGEC
notes: Human IgG1EN/Kappa
B2: mAb E (antibody, human IgG1, kappa)
heavy: EVQLVESGGGLVKPGGSLRLSCAASGFTFSGVSINWVRQAPGKGLEWVSSETTSSGTIYYADSVKGRFTISRDNAKNSLYLQMNSLRAEDTAVYYCARSYYYGMDVWGQGTTVTVSSASTKGPSVFPLAPSSKSTSGGTAALGCLVKDYFPEPVTVSWNSGALTSGVHTFPAVLQSSGLYSLSSVVTVPSSSLGTQTYICNVNHKPSNTKVDKRVEPKSCDKTHTCPPCPAPEAEGAPSVFLFPPKPKDTLMISRTPEVTCVVVDVSHEDPEVKFNWYVDGVEVHNAKTKPREEQYNSTYRVVSVLTVLHQDWLNGKEYKCKVSNKALPSSIEKTISKAKGQPREPQVYTLPPSREEMTKNQVSLTCLVKGFYPSDIAVEWESNGQPENNYKTTPPVLDSDGSFFLYSKLTVDKSRWQQGNVFSCSVMHEALHNHYTQKSLSLSPGK
light: DIVMTQTPLSSPVTLGQPASISCRSSQSLVHRQGNTYLSWLQQRPGQPPRLLIYKISNRFSGVPDRFSGSGAGTDFTLKISRVEAEDVGVYYCMQARQFPLTFGGGTKVEIKRTVAAPSVFIFPPSDEQLKSGTASVVCLLNNFYPREAKVQWKVDNALQSGNSQESVTEQDSKDSTYSLSSTLTLSKADYEKHKVYACEVTHQGLSSPVTKSFNRGEC
notes: Human IgG1EN/Kappa

Tests used:
[1] = molecular target: T1, recombinant human TrkA protein (human, UniProt P04629-2 34-407, limits assumed); test: NGF-blocking ELISA on coated human TrkA, 100 nM btNGF; mAb 0.04 nM
Experimental: (§1) Each row of a 96-well high-binding clear-bottom microtiter plate (Microlon, #655061) was coated overnight at 4° C. with 100 μL/well of recombinant human TrkA protein, diluted to 2 μg/mL in phosphate buffered saline, pH 7.2 (PBS). The next day, the coating solution was removed, and the plate was blocked with 150 μL of Casein-PBS (Thermo Scientific, #37528) for 1 hour at 25° C. with gentle shaking. The plate was then washed three times with PBS supplemented with 0.05% Tween20 (PBST). A two-fold dilution series of exemplified antibodies, along with IgG4 and IgG1 isotype control antibodies, was generated starting at 20 nM in Casein-PBS. 100 μL of the each dilution series sample was added to a well for 30 min at 37° C. with gentle shaking. The plate was then washed three times with PBST. […] The plate was then washed three times with PBST. A 1:3500 dilution of a 1 mg/mL stock solution of streptavidin-HRP (Thermo Scientific, #21130) in Casein-PBS was prepared and […] was added to each well for 20 min at 37° C. with gentle shaking. The plate was washed three times with PBST. […] The reaction was stopped by addition of 100 μL of 1M H₃PO₄ to each well. The absorbance at 450 nm (Abs450) was measured using a SpectraMax 340PC plate reader (Molecular Devices).

[2] = molecular target: T1, recombinant human TrkA protein; test: NGF-blocking ELISA on coated human TrkA, 100 nM btNGF; mAb 0.02 nM
Experimental: as §1

[3] = molecular target: T1, recombinant human TrkA protein; test: NGF-blocking ELISA on coated human TrkA, 100 nM btNGF; mAb 2.5 nM
Experimental: as §1

[4] = molecular target: T1, recombinant human TrkA protein; test: NGF-blocking ELISA on coated human TrkA, 100 nM btNGF; mAb 1.25 nM
Experimental: as §1

[5] = molecular target: T1, recombinant human TrkA protein; test: NGF-blocking ELISA on coated human TrkA, 100 nM btNGF; mAb 0.16 nM
Experimental: as §1

[6] = molecular target: T1, recombinant human TrkA protein; test: NGF-blocking ELISA on coated human TrkA, 100 nM btNGF; mAb 10 nM
Experimental: as §1

[7] = molecular target: T1, recombinant human TrkA protein; test: NGF-blocking ELISA on coated human TrkA, 100 nM btNGF; mAb 0.63 nM
Experimental: as §1

[8] = molecular target: T1, recombinant human TrkA protein; test: NGF-blocking ELISA on coated human TrkA, 100 nM btNGF; mAb 0.31 (printed pM, two-fold series gives nM)
Experimental: as §1

[9] = molecular target: T1, recombinant human TrkA protein; test: NGF-blocking ELISA on coated human TrkA, 100 nM btNGF; mAb 5 nM
Experimental: as §1

[10] = molecular target: T1, recombinant human TrkA protein; test: NGF-blocking ELISA on coated human TrkA, 100 nM btNGF
Experimental: as §1

[11] = molecular target: T1, recombinant human TrkA protein; test: NGF-blocking ELISA on coated human TrkA, 100 nM btNGF; mAb 20 nM
[12] = molecular target: T2, Human TrkA Extracellular Domain Isoform 1 (33-414) (human, UniProt P04629 33-414); test: SPR, mAb captured on Protein A chip, 37 C
T2 construct: SPR analyte; also called Human TrkA Isoform 1
Experimental: (§2) The binding kinetics and affinity of exemplified antibodies to human, cynomolgus monkey, rat, mouse, and rabbit TrkA are determined as described below using a surface plasmon resonance assay on a BIACORE™ 8K instrument (GE Healthcare). Two different isoforms of human TrkA (isoform 1 and isoform 2) are evaluated along with human TrkB and human TrkC. […] All FC2 on all eight channels are set to capture approximately 89 response units (RU) of antibody at a flow rate of 10 μL/min. The antibody sample is prepared at 1 μg/mL by dilution into the running buffer. […] Before the analysis cycle, the chip is regenerated with 3 injections of glycine (pH ˜1.5) at 100 μL/min for a contact time of 15 seconds on FC1 and FC2 in order to clean the surface of the chip.

[13] = molecular target: T3, Human TrkA Extracellular Domain Isoform 2 (33-408) (human, UniProt P04629 33-414); test: SPR, mAb captured on Protein A chip, 37 C
T3 construct: SPR analyte; also called Human TrkA Isoform 2
Experimental: as §2

[14] = molecular target: TrkA on rat NEUROSCREEN-1 cells (pheochromocytoma PC12 subclone) (rat, UniProt P35739 33-799); test: cell-based or functional assay
[15] = molecular target: T4, rat TrkA receptor expressed in transfected HEK293 cells (rat, UniProt P35739 33-799); test: cell-based or functional assay
[16] = molecular target: T4, rat TrkA receptor expressed in …; test: cell-based or functional assay; remark: listed apart in the source
[17] = molecular target: T1, recombinant human TrkA protein; test: NGF-blocking ELISA on coated human TrkA, 100 nM btNGF; mAb 0.08 nM
Experimental: as §1

Chain of TrkA on rat NEUROSCREEN-1 cells (pheochromocytoma PC12 subclone) (P35739 33-799): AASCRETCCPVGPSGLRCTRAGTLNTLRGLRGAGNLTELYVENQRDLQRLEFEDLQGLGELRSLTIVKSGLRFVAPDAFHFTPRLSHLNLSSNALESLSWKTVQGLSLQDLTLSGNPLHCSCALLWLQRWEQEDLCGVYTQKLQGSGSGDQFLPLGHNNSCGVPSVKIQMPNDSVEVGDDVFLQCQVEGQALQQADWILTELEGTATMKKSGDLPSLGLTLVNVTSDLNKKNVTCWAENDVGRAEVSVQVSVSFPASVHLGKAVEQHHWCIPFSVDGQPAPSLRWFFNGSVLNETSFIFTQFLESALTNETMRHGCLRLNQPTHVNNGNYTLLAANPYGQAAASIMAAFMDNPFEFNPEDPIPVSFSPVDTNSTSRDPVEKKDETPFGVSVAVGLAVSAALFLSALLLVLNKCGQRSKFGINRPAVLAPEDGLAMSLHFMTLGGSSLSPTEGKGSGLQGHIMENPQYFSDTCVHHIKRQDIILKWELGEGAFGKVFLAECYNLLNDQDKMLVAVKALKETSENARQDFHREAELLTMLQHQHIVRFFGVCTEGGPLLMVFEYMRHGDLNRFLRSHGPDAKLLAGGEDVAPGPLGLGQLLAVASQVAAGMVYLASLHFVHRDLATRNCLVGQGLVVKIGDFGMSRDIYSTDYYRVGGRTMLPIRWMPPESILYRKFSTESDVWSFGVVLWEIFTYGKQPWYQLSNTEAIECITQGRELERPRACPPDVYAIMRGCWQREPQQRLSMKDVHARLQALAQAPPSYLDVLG
T4 sequence (P35739 33-799): as above
T3 sequence (P04629 other isoform, or with tags, fused parts or gaps): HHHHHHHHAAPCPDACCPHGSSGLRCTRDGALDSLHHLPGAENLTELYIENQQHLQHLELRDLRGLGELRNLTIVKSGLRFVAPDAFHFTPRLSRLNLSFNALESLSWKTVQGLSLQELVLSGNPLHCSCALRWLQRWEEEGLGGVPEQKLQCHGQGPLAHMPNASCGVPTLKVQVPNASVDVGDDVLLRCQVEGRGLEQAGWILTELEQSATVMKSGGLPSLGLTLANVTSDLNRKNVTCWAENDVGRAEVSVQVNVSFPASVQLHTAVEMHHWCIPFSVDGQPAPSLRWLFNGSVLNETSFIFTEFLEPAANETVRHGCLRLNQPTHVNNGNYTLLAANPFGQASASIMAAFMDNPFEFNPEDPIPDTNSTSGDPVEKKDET
T2 sequence (P04629 other isoform, or with tags, fused parts or gaps): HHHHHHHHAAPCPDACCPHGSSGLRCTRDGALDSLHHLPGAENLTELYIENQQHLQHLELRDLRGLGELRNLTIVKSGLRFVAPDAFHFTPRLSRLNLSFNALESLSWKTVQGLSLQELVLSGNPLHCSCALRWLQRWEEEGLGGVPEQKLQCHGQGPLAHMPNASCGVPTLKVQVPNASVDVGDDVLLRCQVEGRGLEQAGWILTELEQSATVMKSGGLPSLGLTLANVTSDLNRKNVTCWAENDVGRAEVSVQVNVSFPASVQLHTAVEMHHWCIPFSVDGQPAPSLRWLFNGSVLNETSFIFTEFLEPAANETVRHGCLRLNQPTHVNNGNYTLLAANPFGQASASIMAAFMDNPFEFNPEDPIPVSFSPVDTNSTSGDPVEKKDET
T1 sequence (P04629 other isoform, or with tags, fused parts or gaps limits assumed): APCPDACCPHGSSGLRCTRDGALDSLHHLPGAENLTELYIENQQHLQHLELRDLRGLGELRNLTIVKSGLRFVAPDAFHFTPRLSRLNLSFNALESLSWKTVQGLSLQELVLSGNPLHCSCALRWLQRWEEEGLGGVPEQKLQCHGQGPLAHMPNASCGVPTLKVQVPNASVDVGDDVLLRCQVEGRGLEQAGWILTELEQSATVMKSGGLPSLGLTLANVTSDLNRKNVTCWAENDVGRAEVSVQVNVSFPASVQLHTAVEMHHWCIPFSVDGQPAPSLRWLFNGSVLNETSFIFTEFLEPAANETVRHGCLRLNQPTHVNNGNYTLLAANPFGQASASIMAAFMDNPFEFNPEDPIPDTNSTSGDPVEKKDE

Row | Binder | Absorbance 450 nm [1] | Absorbance 450 nm [2] | Absorbance 450 nm [3] | Absorbance 450 nm [4] | Absorbance 450 nm [5] | Absorbance 450 nm [6] | Absorbance 450 nm [7] | Absorbance 450 nm [8] | Absorbance 450 nm [9] | IC50 [10] | Absorbance 450 nm [11] | Kd [12] | koff [12] | kon [12] | Kd [13] | koff [13] | kon [13] | % Max Stimulation of neurite outgrowth [14] | IC50, inhibition of NGF-induced neurite outgrowth [14] | % Max Inhibition, pTrkA [15] | also measured
1 | B1 | 1 | 1.05 | 0.16 | 0.19 | 0.89 | 0.17 | 0.38 | 0.67 | 0.19 | 0.37 nM | 0.19 | 4.4 nM | 0.0012 s⁻¹ | 280000 M⁻¹ s⁻¹ | 4.9 nM | 0.0013 s⁻¹ | 250000 M⁻¹ s⁻¹ | 17% | 0.08 nM | 40% | IC50 (nM), pTrkA [15]: 0.68 nM; pTrkA counts per second, NGF +0.1 pM mAb [15]: 4.53e+06 counts per second; pTrkA counts per second, NGF +1 pM mAb [15]: 4.06e+06 counts per second; pTrkA counts per second, NGF +10 pM mAb [15]: 4.52e+06 counts per second; pTrkA counts per second, NGF +100 pM mAb [15]: 3.79e+06 counts per second; pTrkA counts per second, NGF +1 nM mAb [15]: 3.16e+06 counts per second; pTrkA counts per second, NGF +10 nM mAb [15]: 2.43e+06 counts per second; pTrkA counts per second, NGF +100 nM mAb [15]: 2.59e+06 counts per second; pTrkA counts per second, NGF +1 uM mAb [15]: 1.93e+06 counts per second; % Max stimulation, pTrkA [16]: 77%; EC50 (nM), pTrkA [16]: 0.17 nM; pTrkA counts per second, 0.1 pM mAb, no NGF [16]: 571000 counts per second; pTrkA counts per second, 1 pM mAb, no NGF [16]: 585000 counts per second; pTrkA counts per second, 10 pM mAb, no NGF [16]: 627000 counts per second; pTrkA counts per second, 100 pM mAb, no NGF [16]: 1.25e+06 counts per second; pTrkA counts per second, 1 nM mAb, no NGF [16]: 2.39e+06 counts per second; pTrkA counts per second, 10 nM mAb, no NGF [16]: 2.97e+06 counts per second; pTrkA counts per second, 100 nM mAb, no NGF [16]: 2.85e+06 counts per second; pTrkA counts per second, 1 uM mAb, no NGF [16]: 2.05e+06 counts per second; Absorbance 450 nm [17]: 0.96
2 | B2 | 1.04 | 1.1 | 0.19 | 0.25 | 0.92 | 0.19 | 0.41 | 0.68 | 0.21 | 0.35 nM | 0.19 | 4.8 nM | 0.0013 s⁻¹ | 270000 M⁻¹ s⁻¹ | 5.2 nM | 0.0014 s⁻¹ | 260000 M⁻¹ s⁻¹ | 17% | 0.07 nM | 37% | IC50 (nM), pTrkA [15]: 0.68 nM; pTrkA counts per second, NGF +0.1 pM mAb [15]: 2.94e+06 counts per second; pTrkA counts per second, NGF +1 pM mAb [15]: 3.38e+06 counts per second; pTrkA counts per second, NGF +10 pM mAb [15]: 3.44e+06 counts per second; pTrkA counts per second, NGF +100 pM mAb [15]: 3.7e+06 counts per second; pTrkA counts per second, NGF +1 nM mAb [15]: 2.27e+06 counts per second; pTrkA counts per second, NGF +10 nM mAb [15]: 2.23e+06 counts per second; pTrkA counts per second, NGF +100 nM mAb [15]: 1.7e+06 counts per second; pTrkA counts per second, NGF +1 uM mAb [15]: 1.88e+06 counts per second; % Max stimulation, pTrkA [16]: 74%; EC50 (nM), pTrkA [16]: 0.3 nM; pTrkA counts per second, 0.1 pM mAb, no NGF [16]: 739000 counts per second; pTrkA counts per second, 1 pM mAb, no NGF [16]: 636000 counts per second; pTrkA counts per second, 10 pM mAb, no NGF [16]: 610000 counts per second; pTrkA counts per second, 100 pM mAb, no NGF [16]: 1.01e+06 counts per second; pTrkA counts per second, 1 nM mAb, no NGF [16]: 1.82e+06 counts per second; pTrkA counts per second, 10 nM mAb, no NGF [16]: 2.46e+06 counts per second; pTrkA counts per second, 100 nM mAb, no NGF [16]: 2.02e+06 counts per second; pTrkA counts per second, 1 uM mAb, no NGF [16]: 2.05e+06 counts per second; Absorbance 450 nm [17]: 1.05
